Drawing on US20150268247A1, “Assay for Screening of Anti-Viral Compounds That Inhibit Specific Interaction Interfaces Between Cullin5 and an ElonginB/ElonginC/ CBF-beta/HIV-1 Vif Complex” (UNIVERSITY OF ROCHESTER, priority 2012, published 2015), this text covers percent decrease in fluorescence (FRET quench) and percent quenching for two substances.

The target in experiment [1] is mEGFP tagged quaternary complexes.
Experiment [2] shares this target. This is another data set of the same source.

Regarding “Cul5(N)-sREACh (human Cul5 residues 2-384 with V341R, L345D, C-terminally tagged with sREACh with F46L, Q69M, F223R)”, the percent decrease in fluorescence (FRET quench) in experiment [1] was 8%.

Take “sREACh-Cul5(N) (sREACh with F46L, Q69M, F223R, flexible linker, human Cul5 residues 2-384 with V341R, L345D)”: the percent quenching in experiment [2] worked out at 20%.
